Target: T1, human Colony Stimulating Factor-1 (hCSF-1), residues 1-149 (human)
T1 sequence (P09603 whole entry, looked up): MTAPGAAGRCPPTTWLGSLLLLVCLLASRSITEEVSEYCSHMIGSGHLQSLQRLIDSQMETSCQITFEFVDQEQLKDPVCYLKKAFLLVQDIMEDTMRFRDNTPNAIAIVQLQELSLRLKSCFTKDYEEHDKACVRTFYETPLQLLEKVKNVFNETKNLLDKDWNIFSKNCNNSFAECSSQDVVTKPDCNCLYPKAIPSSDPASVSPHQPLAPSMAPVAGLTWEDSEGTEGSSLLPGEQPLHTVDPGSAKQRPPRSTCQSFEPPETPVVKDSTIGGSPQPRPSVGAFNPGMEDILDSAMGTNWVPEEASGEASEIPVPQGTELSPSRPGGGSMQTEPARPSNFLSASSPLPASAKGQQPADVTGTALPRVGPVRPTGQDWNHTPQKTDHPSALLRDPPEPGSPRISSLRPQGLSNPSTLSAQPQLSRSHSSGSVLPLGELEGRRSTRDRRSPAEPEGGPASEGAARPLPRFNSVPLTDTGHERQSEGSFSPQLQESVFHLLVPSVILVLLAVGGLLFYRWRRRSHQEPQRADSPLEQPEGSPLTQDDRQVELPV
Test: ITC

B1: human CSF-1 receptor, first three extracellular domains (hCSF-1R_(D1-D3)) (domain or fragment)
chain: IPVIEPSVPELVVKPGATVTLRCVGNGSVEWDGPPSPHWTLYSDGSSSILSTNNATFQNTGTYRCTEPGDPLGGSAAIHLYVKDPARPWNVLAQEVVVFEDQDALLPCLLTDPVLEAGVSLVRVRGRPLMRHTNYSFSPWHGFTIHRAKFIQSQDYQCSALMGGRKVMSISIRLKVQKVIPGPPALTLVPAELVRIRGEAAQIVCSASSVDVNFDVFLQHNNTKLAIPQQSDFHNNRYQKVLTLNLDQVDFQHAGNYSCVASNVQGKHSTSMFFRVVES
modifications: N-linked glycosylation (produced with kifunensine)
Q: Which Kd does the source give for B1 here?
A: 213 nM

Reference: article PMC3260422 (Structure(London, England:1993), 2011)
